Measured values as given in publication PMC2953525, “Subtle Alterations in PCNA-Partner Interactions Severely Impair DNA Replication and Repair” (PLoS Biology, 2010).
Changes are numbered by the printed parent chain.

How the values were obtained:
Details in all cases: partners not purified
[1] = target: T1, pol30-Msh6E6 (yeast, UniProt P15873 1-258, IDCL DIDADFLKIEEL to DYDKDLLKIIEL); experiment: two-hybrid; pAD-GAL4-PCNA WT or mutant (called bait) and pBD-GAL4-partner (called prey) in strain YRG2; 10-fold serial dilutions spotted on SC-Leu-Trp-His plates, 30°C, 3 d; growth similar to WT PCNA is denoted 1
T1 construct: PCNA (POL30), yeast; source: yeast two-hybrid fusion (pAD-GAL4, strain YRG2)
T1 sequence: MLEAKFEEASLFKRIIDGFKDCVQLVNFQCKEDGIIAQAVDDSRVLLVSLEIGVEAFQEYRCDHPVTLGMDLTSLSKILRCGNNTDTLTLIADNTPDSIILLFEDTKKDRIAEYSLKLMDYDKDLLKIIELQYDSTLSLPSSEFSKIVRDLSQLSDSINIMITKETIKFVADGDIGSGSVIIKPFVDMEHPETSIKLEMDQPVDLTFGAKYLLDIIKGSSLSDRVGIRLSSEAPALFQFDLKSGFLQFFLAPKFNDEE

[2] = target: T2, pol30-Msh6E2 (yeast, UniProt P15873 1-258, IDCL DIDADFLKIEEL to DYDRDMLKISEL); experiment: as above
T2 construct: PCNA (POL30), yeast; source: yeast two-hybrid fusion (pAD-GAL4, strain YRG2)
T2 sequence: T1 sequence with K123R, L125M, I129S

[3] = target: T3, pol30-Pol32E9 (yeast, UniProt P15873 1-258, IDCL DIDADFLKIEEL to DNDVDSLKIIEL); experiment: as above
T3 construct: PCNA (POL30), yeast; source: yeast two-hybrid fusion (pAD-GAL4, strain YRG2)
T3 sequence: T1 sequence with Y121N, K123V, L125S

[4] = target: T4, pol30-Rad27L1 (yeast, UniProt P15873 1-258, IDCL DIDADFLKIEEL to D––VDILKIGEL); experiment: two-hybrid; quantitative Y2H: generation time of the YRG2 strains in liquid SC-Leu-Trp-His, given relative to cells expressing WT PCNA; average of at least 3 experiments
T4 construct: PCNA (POL30), yeast; two residues after the first aspartic acid of the IDCL are deleted; source: yeast two-hybrid fusion (pAD-GAL4, strain YRG2)
T4 sequence: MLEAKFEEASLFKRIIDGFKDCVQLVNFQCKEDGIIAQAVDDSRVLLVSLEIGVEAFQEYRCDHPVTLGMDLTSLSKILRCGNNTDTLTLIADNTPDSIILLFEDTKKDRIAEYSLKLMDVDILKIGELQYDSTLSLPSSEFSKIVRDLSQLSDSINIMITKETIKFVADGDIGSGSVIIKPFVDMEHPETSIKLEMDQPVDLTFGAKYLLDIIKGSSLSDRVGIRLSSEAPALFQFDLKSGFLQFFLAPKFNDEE

[5] = target: T5, pol30-79 (yeast, UniProt P15873 1-258, IDCL DIDADFLKIEEL to DIDADFAKAEEL); experiment: as above
T5 construct: PCNA (POL30), yeast; the changes are then L126A and I128A; also called PCNA79; source: yeast two-hybrid fusion (pAD-GAL4, strain YRG2)
T5 sequence: T1 sequence with Y121I, K123A, L125F, L126A, I128A, I129E

[6] = target: T6, pol30-Rad27E6 (yeast, UniProt P15873 1-258, IDCL DIDADFLKIEEL to DGDYDILKIREL); experiment: as above
T6 construct: PCNA (POL30), yeast; source: yeast two-hybrid fusion (pAD-GAL4, strain YRG2)
T6 sequence: T1 sequence with Y121G, K123Y, L125I, I129R

B1: Rad27 (natural protein, yeast, UniProt P26793 1-382, looked up)
chain: MGIKGLNAIISEHVPSAIRKSDIKSFFGRKVAIDASMSLYQFLIAVRQQDGGQLTNEAGETTSHLMGMFYRTLRMIDNGIKPCYVFDGKPPDLKSHELTKRSSRRVETEKKLAEATTELEKMKQERRLVKVSKEHNEEAQKLLGLMGIPYIIAPTEAEAQCAELAKKGKVYAAASEDMDTLCYRTPFLLRHLTFSEAKKEPIHEIDTELVLRGLDLTIEQFVDLCIMLGCDYCESIRGVGPVTALKLIKTHGSIEKIVEFIESGESNNTKWKIPEDWPYKQARMLFLDPEVIDGNEINLKWSPPKEKELIEYLCDDKKFSEERVKSGISRLKKGLKSGIQGRLDGFFQVVPKTKEQLAAAAKRAQENKKLNKNKNKVTKGRR
notes: Rad27 (endonuclease), yeast; also called pBD-Rad27; source: yeast two-hybrid fusion (pBD-GAL4, strain YRG2)
- fold change in affinity relative to WT PCNA (Y2H) [1]: 1.3 fold
- fold change in affinity relative to WT PCNA (Y2H) [2]: 1.3 fold
- fold change in affinity relative to WT PCNA (Y2H) [3]: 1.2 fold
- fold change in affinity relative to WT PCNA (Y2H generation time) [4]: 1.7 fold
- fold change in affinity relative to WT PCNA (Y2H generation time) [5]: 0.5 fold
- fold change in affinity relative to WT PCNA (Y2H generation time) [6]: 1.5 fold
